Reference: publication PMC12421817, “c-di-GMP regulates bacterial NAD biosynthesis via targeting the transcriptional repressor NadR” (mBio, 2025)
Numbering of substitutions follows the chain as printed.

What was measured:
[1] = biological target: T1, NadR H80A H80A (Salmonella enterica serovar Typhimurium) (UniProt P24518); assay: EMSA; conditions: EMSA: 50 ng DNA, 20 mM Tris pH 7.5, 100 mM NaCl, 10% glycerol, 4 mM MgCl2, 1% NP-40, 1 mM DTT, 25 uL, 20 min room temperature; 6% native PAGE, 0.5x TBE, SYBR …
T1 sequence: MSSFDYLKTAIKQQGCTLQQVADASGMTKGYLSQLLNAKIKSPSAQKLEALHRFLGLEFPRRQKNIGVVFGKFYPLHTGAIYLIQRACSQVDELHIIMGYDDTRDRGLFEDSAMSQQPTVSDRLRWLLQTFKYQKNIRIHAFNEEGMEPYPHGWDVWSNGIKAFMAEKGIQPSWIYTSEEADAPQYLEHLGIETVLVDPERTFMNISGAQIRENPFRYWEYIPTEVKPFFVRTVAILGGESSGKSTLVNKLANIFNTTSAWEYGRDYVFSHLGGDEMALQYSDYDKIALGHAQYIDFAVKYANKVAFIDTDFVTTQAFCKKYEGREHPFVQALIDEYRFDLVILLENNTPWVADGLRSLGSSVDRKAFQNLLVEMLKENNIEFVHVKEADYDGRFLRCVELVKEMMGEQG

[2] = biological target: T2, NadR R212A R212A (Salmonella enterica serovar Typhimurium) (UniProt P24518); assay: EMSA; conditions: EMSA: 50 ng DNA, 20 mM Tris pH 7.5, 100 mM NaCl, 10% glycerol, 4 mM MgCl2, 1% NP-40, 1 mM DTT, 25 uL, 20 min room temperature; 6% native PAGE, 0.5x TBE, SYBR …
T2 sequence: T1 sequence with A80H, R212A

Sequence | binding [1] | binding [2]
GCTCATCGTGGCTTCTCGTTTTACTGACTTAACGAAACAACCGAATGAAAGCGTAATAAACGCCACAATCGGTTAATTTGTTTTATATGCTAAACAAGATAGCTGATTCAATAAGGAAAGTCACAATAATTACGTAGCCCCGTATCTGATGGCGGCGTAACGTCTTATCTGGCCTACGTGAGCGGTGCCGTCTGTAGGCCTGAT (double strand) [nadA-pnuC promoter] | binds | binds
GGTTCTTGTTTAATTTACTAAACATGGTTGCGGCAGATTAGCACTATATGGCGCTAAAAAGCACGTTATGATTTCGCTGGTGTTGTGCTTATTAAACATAAAATAAAAATACGGCGAGAGATAAACGGCAAAAAATATTTTATAGGGCAGGGTGTTAGCGTCGGATTTTGTAGTGAAATAAAGATGCTGTTAGGTTACTC (double strand) [nadB promoter] | binds | binds
